# ± gives the standard deviation of the averaged measurements.
# Test system: Saccharomyces cerevisiae
# Assay: protein stability index of tFT-peptide fusion (C-terminal peptide) (PSI (0-1 scale)); higher = more stable (slower turnover)
# Conditions: temperature: 30 C
# Protocol: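 MPS profiling in S. cerevisiae of the yeast C-terminome library: the last 12 aa of each annotated ORF are fused to the C-terminus of a sfGFP-mCherry timer, after a GGGS linker. Cells are FACS-sorted into 8 mCherry/sfGFP bins and deep-sequenced. PSI runs from 0 (unstable) to 1 (stable); wild type and das1Δ backgrounds, two technical replicates each.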
# [1] = genetic background: das1 deletion
Sequence,protein stability index [1],protein stability index (genetic background: wild type)
KVGNDHMELKKE [TFG1 C-terminal 12 aa],0.699 ± 0.013,0.671 ± 0.035
FAQDLMKCTYKI [NUP145 C-terminal 12 aa],0.708 ± 0.0095,0.656 ± 0.018
RKFHVVDTSLFA [MOG1 C-terminal 12 aa],0.688 ± 0.01,0.688 ± 0.05
KLGLFRHIFSRK [LRE1 C-terminal 12 aa],0.691 ± 0.012,0.704 ± 0.01
FCLQCFKDYCYS [SPO1 C-terminal 12 aa],0.6444 ± 0.0063,0.654 ± 0.032
IKLEDAKGTHIK [RAD59 C-terminal 12 aa],0.695 ± 0.013,0.6411 ± 0.0032
AQGKLIMKVEGF [AST2 C-terminal 12 aa],0.698 ± 0.03,0.72 ± 0.024
IEAPQFYRYWSA [SWI3 C-terminal 12 aa],0.724 ± 0.033,0.706 ± 0.011
RATLNSVNSFLM [RIT1 C-terminal 12 aa],0.681 ± 0.013,0.673 ± 0.023
KKLDGEVLCRVK [MRPS8 C-terminal 12 aa],0.659 ± 0.021,0.6437 ± 0.0055
FCISFPCFGLSI [AIM26 C-terminal 12 aa],0.679 ± 0.037,0.704 ± 0.003
ALKKAARQVKKE [IFA38 C-terminal 12 aa],0.71 ± 0.0074,0.6713 ± 0.0036
ISGGTFGFRSEI [HBT1 C-terminal 12 aa],0.696 ± 0.02,0.7165 ± 0.0021
FKVDDNVDFPSA [RPN2 C-terminal 12 aa],0.681 ± 0.016,0.744 ± 0.089
MSNSNSVCCTLM [STE18 C-terminal 12 aa],0.736 ± 0.01,0.7027 ± 0.0034
KMKQRKLTPGDS [CMC4 C-terminal 12 aa],0.691 ± 0.018,0.65 ± 0.0073
IVPSQGKKVKFD [NOP13 C-terminal 12 aa],0.679 ± 0.0068,0.676 ± 0.011
DLMISCLMNQET [MTR3 C-terminal 12 aa],0.712 ± 0.028,0.6732 ± 0.0053
IYLLSDYEKDNI [CMR2 C-terminal 12 aa],0.709 ± 0.044,0.684 ± 0.0073
KAFVIGAIALVA [YMR317W C-terminal 12 aa],0.331 ± 0.01,0.341 ± 0.0043
QIILQKEGVLDK [KCC4 C-terminal 12 aa],0.704 ± 0.0035,0.672 ± 0.0083

Sequence,protein stability index [1],protein stability index (genetic background: wild type)
TFGKCILDGFKA [SCM4 C-terminal 12 aa],0.709 ± 0.017,0.687 ± 0.05
LLLKVEKKGSKK [HTZ1 C-terminal 12 aa],0.706 ± 0.034,0.716 ± 0.041
ATMALRKLVSRE [MSA2 C-terminal 12 aa],0.693 ± 0.025,0.705 ± 0.061
FGICAIHWGIKV [COQ5 C-terminal 12 aa],0.385 ± 0.02,0.411 ± 0.013
LVGGGIKKSGKK [TMA7 C-terminal 12 aa],0.67 ± 0.016,0.736 ± 0.011
DEADSSMTEASV [SNF2 C-terminal 12 aa],0.704 ± 0.033,0.634 ± 0.015
KISLLSHAQCYK [YIR016W C-terminal 12 aa],0.668 ± 0.024,0.6506 ± 0.0051
RRPSSTSQYLIR [CDC20 C-terminal 12 aa],0.692 ± 0.01,0.679 ± 0.038
LFSNVLSLSSNI [YGL007C-A C-terminal 12 aa],0.7296 ± 0.0024,0.695 ± 0.016
NTFRKIKGDKKN [MDJ1 C-terminal 12 aa],0.687 ± 0.068,0.758 ± 0.0081
NGTAKSAQSTTV [YAR019W-A C-terminal 12 aa],0.67513 ± 0.00026,0.729 ± 0.016
TLIDYFIENDGL [LYS5 C-terminal 12 aa],0.7227 ± 0.0034,0.761 ± 0.092
KNLWMRENEITI [HES1 C-terminal 12 aa],0.711 ± 0.059,0.71 ± 0.018
FMGLGCVISEEL [TFB3 C-terminal 12 aa],0.693 ± 0.01,0.685 ± 0.097
IGAPASGLRIRV [COP1 C-terminal 12 aa],0.693 ± 0.0074,0.69199 ± 5.7e-06
HGGTISLCRFGG [SWT21 C-terminal 12 aa],0.686 ± 0.023,0.658 ± 0.015
LMVENFRKEYII [PTI1 C-terminal 12 aa],0.7001 ± 0.002,0.547 ± 0.031
KAVEFTTTALSS [MKT1 C-terminal 12 aa],0.715 ± 0.0089,0.747 ± 0.11
YFVNNIIVRIQS [YKL118W C-terminal 12 aa],0.559 ± 0.009,0.329 ± 0.028
IAFPQRKYAIKA [RPL35A C-terminal 12 aa],0.299 ± 0.024,0.33 ± 0.01
ANGRHPQPSITL [CDC33 C-terminal 12 aa],0.71 ± 0.016,0.709 ± 0.0097

Sequence,protein stability index [1],protein stability index (genetic background: wild type)
VKKLLEIRSKSS [GTT2 C-terminal 12 aa],0.681 ± 0.0073,0.369 ± 0.0065
IIRPLVLKNFII [YDR371C-A C-terminal 12 aa],0.5029 ± 0.0013,0.116 ± 0.0054
NKREFIDSLRPH [AIM20 C-terminal 12 aa],0.71 ± 0.013,0.6774 ± 0.0032
GKKGQHVGCCVC [YFL066C C-terminal 12 aa],0.722 ± 0.0084,0.691 ± 0.046
TEEMKDAEEMKQ [RIX7 C-terminal 12 aa],0.685 ± 0.014,0.661 ± 0.017
GEKKQKGQALQF [RPL42A C-terminal 12 aa],0.68 ± 0.025,0.662 ± 0.051
WAVGGVELTTDI [GCN1 C-terminal 12 aa],0.76 ± 0.021,0.705 ± 0.026
IVPLSELEKTLI [XKS1 C-terminal 12 aa],0.696 ± 0.016,0.687 ± 0.0097
ALWKEKKEKPRS [RPS23A C-terminal 12 aa],0.709 ± 0.01,0.687 ± 0.03
VSKMDCDPLTVA [NIF3 C-terminal 12 aa],0.678 ± 0.027,0.676 ± 0.025
DEFQRLTNGIPY [STT4 C-terminal 12 aa],0.695 ± 0.024,0.6923 ± 0.0061
LMFSKLGRYLFN [NSG1 C-terminal 12 aa],0.6857 ± 0.0016,0.655 ± 0.021
VACDSDSSSTIE [YEN1 C-terminal 12 aa],0.679 ± 0.016,0.699 ± 0.014
NFLNLLSPLPSV [TOM7 C-terminal 12 aa],0.72262 ± 0.00027,0.6951 ± 0.0031
DLTKKPKKITFD [DBP3 C-terminal 12 aa],0.6923 ± 0.0048,0.638 ± 0.018
IPLTEFDLSDSK [YMR253C C-terminal 12 aa],0.701 ± 0.0095,0.73422 ± 0.00045
NNLHLPGNTGFF [PDC2 C-terminal 12 aa],0.728 ± 0.0081,0.712 ± 0.043
IRLFRSARRWVG [ADE6 C-terminal 12 aa],0.7017 ± 0.0011,0.66 ± 0.0083
AVERLKLLKDYL [BNA3 C-terminal 12 aa],0.685 ± 0.013,0.73 ± 0.0074
HFCYIGRITTHT [YDL114W-A C-terminal 12 aa],0.681 ± 0.017,0.689 ± 0.018
DDFDMMEATQLS [MUD2 C-terminal 12 aa],0.70816 ± 0.00051,0.696 ± 0.0094

Sequence,protein stability index [1],protein stability index (genetic background: wild type)
NTESSCGFFQWV [APN2 C-terminal 12 aa],0.72737 ± 0.00023,0.737 ± 0.02
DDNEKALTWEEL [ATG19 C-terminal 12 aa],0.706 ± 0.013,0.6976 ± 0.0069
GYLIWSMGNRRR [YFL051C C-terminal 12 aa],0.731 ± 0.018,0.71 ± 0.016
KLRITSQENKTE [BCK1 C-terminal 12 aa],0.68 ± 0.022,0.766 ± 0.036
LPPGLNSKKNIK [EAP1 C-terminal 12 aa],0.69532 ± 0.00062,0.658 ± 0.01
KLVWTLQSLCMR [YEL032C-A C-terminal 12 aa],0.688 ± 0.0084,0.681 ± 0.021
ARGRRRSKGFKV [RPL18A C-terminal 12 aa],0.722 ± 0.03,0.696 ± 0.016
QLNLVVNGVRLN [YLR379W C-terminal 12 aa],0.674 ± 0.021,0.655 ± 0.016
STPIAIGIMNIL [YDR271C C-terminal 12 aa],0.674 ± 0.018,0.697 ± 0.0089
DHIPLLTEFKIL [NGL1 C-terminal 12 aa],0.721 ± 0.036,0.188 ± 0.02
PAAIKQAIASNV [TRX2 C-terminal 12 aa],0.659 ± 0.0072,0.657 ± 0.0098
YEAKLSKRILRD [SCM3 C-terminal 12 aa],0.7215 ± 0.0071,0.723 ± 0.0073
KNEEDSTYFSNV [PMR1 C-terminal 12 aa],0.6935 ± 0.0013,0.698 ± 0.027
HLGKFFVKQKIL [ERP1 C-terminal 12 aa],0.696 ± 0.042,0.152 ± 0.0043
CMKAVILYSEQM [ATE1 C-terminal 12 aa],0.675 ± 0.012,0.6847 ± 0.0021
EGDIEPLKRILK [UBP2 C-terminal 12 aa],0.706 ± 0.012,0.675 ± 0.088
NSIISLEALDAI [SMX2 C-terminal 12 aa],0.72 ± 0.039,0.708 ± 0.022
IVALILNTRGSE [VMA11 C-terminal 12 aa],0.683 ± 0.0096,0.668 ± 0.028
STFSIVSSISLW [YPL044C C-terminal 12 aa],0.6894 ± 0.0026,0.665 ± 0.057
